# Experimental data: the supplement of paper PMC12042874
# ± gives the uncertainty stated by the source.
# Assay: amyloid nucleation score (Sup35N fusion, yeast selection) (log enrichment); library NNK1; higher = more nucleation; inactive = no reads after selection
# Summary of the method: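 Yeast lacking psi expressed peptides of 20 random codons fused to Sup35N, received 100 μM copper sulfate for 24 hours, and were then grown for 7 days at 30°C on medium lacking adenine and uracil. Illumina sequencing of input and output plasmid inserts provided the reads. Nucleation scores are DiMSum log enrichments of output over input, centred on the mode of non-aggregating sequences. Any sequence with under 100 input reads was excluded.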
row,Substance,amyloid nucleation score
1,RSRVSIRSHSDRRGRVKRVV,1.15 ± 0.65
2,RSSGVSVGYFRAFS,inactive
3,RSSLVLTFELFRFGMYHQEM,1.28 ± 0.15
4,RSVCIVF,0.105 ± 0.43
5,RTCHSQICFSGRMYRLFVMI,0.41 ± 0.48
6,RTFHYAVNINRWLNKECGLH,-0.702 ± 1.7
7,RTGITNTKPTQWSYNQSLSS,-0.291 ± 0.52
8,RTGSAASG,-0.564 ± 0.38
9,RTGVIWYY,-0.677 ± 1
10,RTHEFQTLMEAFRSNTAVSA,-0.031 ± 0.22
11,RTIHAIERDDCLRGNSGKNN,1.12 ± 0.57
12,RTLHRLLSSINAKGDRYRLR,-0.935 ± 1.9
13,RTRAGKYMYVSSQPTCSILI,0.312 ± 0.56
14,RTSTQFPSHQYIQVVLCIS,inactive
15,RVCVFIN,inactive
16,RVCVLFSCWRTMYMIWNSRE,5.71 ± 0.061
17,RVDGHTVR,2.4 ± 0.14
18,RVDPLV,inactive
19,RVDQVKSGFDMLYYPHWHQL,0.532 ± 0.37
20,RVDRMKNIFVRYRTVRVHGG,9.304 ± 0.045
21,RVEVSGVLALANPLVPF,0.92 ± 0.6
22,RVFKFSPYILKAILEVSNA,0.458 ± 0.32
23,RVGDYGKHRW,1.31 ± 0.14
24,RVGYH,-0.135 ± 0.35
25,RVIGPTHYLQLCNIMFCDYI,7.206 ± 0.051

row,Substance,amyloid nucleation score
1,RVISPSCKWDQCSPMCS,-0.499 ± 1.1
2,RVLANCLCFKYNETRRGCTL,0.218 ± 0.95
3,RVLIRYQV,0.345 ± 0.58
4,RVLNMFYVMNCAIFWVVEAC,2.49 ± 0.18
5,RVLSSTNHSAYHWIEKGSTF,1.01 ± 0.31
6,RVMVFGRHNEDVSKFSISGK,4 ± 0.1
7,RVRAVCVLFRTNAAFPAGTH,-1.03 ± 0.74
8,RVRTPHNWTWGITCTWVFKF,0.326 ± 0.51
9,RVTSNEKRNYRVSRICPHLT,-0.271 ± 1
10,RVWCLRTLKCLIAAR,0.189 ± 0.45
11,RVYYSRYYVFDHSYFDTRRG,-1.07 ± 1.3
12,RWCGKPRICFSISEAVDKLH,-0.2 ± 0.21
13,RWEFGLRHGKSVKWSIPSLY,-0.085 ± 0.95
14,RWGAYVYGQSVSINGIRIVL,6.665 ± 0.045
15,RWLHVIKL,2.21 ± 0.35
16,RWSILTIVSMGP,0.196 ± 1.2
17,RWSPV,1.47 ± 0.54
18,RWTVLRIWIYEVQKIAARRS,0.098 ± 0.44
19,RWYVFWQSMGCVRSGVWVKG,0.195 ± 0.31
20,RWYWIF,4.6 ± 0.069
21,RYDPMLWINLYCFLITGG,0.334 ± 0.39
22,RYFSRAVACDHNES,-0.547 ± 0.84
23,RYHPMG,-0.074 ± 0.93
24,RYHSMYTNSNTRGFGSSLQL,inactive
25,RYHSY,-0.008 ± 0.77

row,Substance,amyloid nucleation score
1,RYICVTFISLGELPFYWWFT,-1.55 ± 0.83
2,RYILLVYVTCDRKVRAMKGV,0.883 ± 0.33
3,RYLLKLFRIVGFGVVFMMSK,-0.511 ± 0.34
4,RYLVVQLRMGLYLFAFKDPD,-0.686 ± 0.42
5,RYSSPSRGTAMFSLLYLYVY,0.694 ± 0.97
6,SAFVDWSAGSSNDFFFF,-0.577 ± 0.94
7,SAKNTGYMWMLIWLG,0.204 ± 0.79
8,SALGFFRAYQSIKRTLFRRR,-0.064 ± 0.56
9,SALIAMYYHSSGTMWIQYFC,0.145 ± 0.83
10,SALIILMHVV,-0.761 ± 1.2
11,SALNSSRGKFICSRRCHGEE,0.078 ± 0.23
12,SALWRNFSALRSNWK,-0.325 ± 0.34
13,SANCIWFFL,7.105 ± 0.071
14,SARQVSGLTWVM,2.52 ± 0.11
15,SARSWDLQMCFSCLYR,7.28 ± 0.08
16,SASAISTPGGCYDGYLFDSQ,-0.457 ± 0.61
17,SATNCRTGKDCRERGHTLGL,0.628 ± 0.33
18,SAVQFG,-0.539 ± 0.54
19,SAVVAVPVPYRDHQCPLPRV,1.13 ± 0.52
20,SAWWIGMMWCSSSSYLEIGG,-0.586 ± 0.39
21,SCFPLLRQFAGWLSWSRT,2.28 ± 0.18
22,SCFVSSSAIPWVIHSKFDLG,0.143 ± 0.55
23,SCGLYFAGVEVGGAVSLCKG,0 ± 0.48
24,SCHIKK,0.12 ± 0.39
25,SCIWIWICNHSMFGMETGLG,4.12 ± 0.1

row,Substance,amyloid nucleation score
1,SCLCYEDRSLHGYWNMSYAQ,0.938 ± 0.49
2,SCLMLGTGGETLRSRPPRKV,-1.45 ± 1.1
3,SCLWGMRLKL,-0.366 ± 0.8
4,SCMPHYEFMWRGAQAPWGLD,0.183 ± 0.5
5,SCPVLHAVPNYCAKALLSLR,-0.794 ± 0.64
6,SCQIGLPVLTYRTATVGHKS,0.06 ± 1
7,SCTASMASPNLEF,inactive
8,SCYVLVMYCYDMSFCDTLCE,0.024 ± 0.47
9,SDAITRVIRHMNPFCLTALL,-0.928 ± 0.95
10,SDDLFVNFSMSVWFLKVSLR,0.515 ± 0.34
11,SDDLRMHTHGGGYSGFWKGY,inactive
12,SDFAYCRCNLSVYRGMILTQ,0.064 ± 0.25
13,SDFQRE,3.91 ± 0.099
14,SDGASPFRWCFHSLRMVSAR,-0.647 ± 1.1
15,SDGQNRTTMTYFPSVGWVSS,-1.98 ± 2.7
16,SDLCSLLASQRFLRRSGYKL,inactive
17,SDLLCLLVKDIIYFFVYLHS,1.96 ± 0.53
18,SDVGLGNKKSWGVRAVCLDE,0.452 ± 1.2
19,SDYTLEGLIVFPCCVLLHVR,0.381 ± 0.39
20,SECSINRWF,0.965 ± 0.76
21,SEDVLIPAGRCPL,0.845 ± 0.7
22,SEGWHGPGARVCLVFKNSRV,0.286 ± 0.61
23,SEICLLVSSKSGHDAQSTIS,-0.011 ± 1.2
24,SELEIA,inactive
25,SELPVTGWLLIFLGELTWS,-0.88 ± 1.3

row,Substance,amyloid nucleation score
1,SELYLFSSRGIYQSTRLRLR,-0.147 ± 0.81
2,SEMLSLKIGQGTVTPFNFWM,-0.09 ± 1.2
3,SEPEKG,-0.463 ± 0.43
4,SESYEFVVHLHMESLRKLN,-0.245 ± 0.71
5,SETYSSVAWRTMVVAAELVD,0.822 ± 0.95
6,SEYLASMAVTRFLGIGWMNS,0.548 ± 0.57
7,SFCLAVGPNLMTIGICMLQQ,inactive
8,SFCVFLMDMSRIGPETLSEW,4.95 ± 0.076
9,SFDRLMCRAM,0.688 ± 0.88
10,SFEKKSVPNSANLGATVLPN,0.196 ± 0.38
11,SFILCGISRSYQMLLMTRYL,6.09 ± 0.068
12,SFLDMSTKVEYESIWTSTVA,0.568 ± 0.45
13,SFNWPGFPDCFGPFRAVFIS,-0.61 ± 1.1
14,SFNYRIAFFSRYRPYMGSLG,1.76 ± 0.37
15,SFRCDVD,-0.217 ± 0.55
16,SFRFNGGTFVHSSKTKP,0.441 ± 0.3
17,SFRIVLLPPF,2.64 ± 0.26
18,SFSVSLTTYVYYFICHYAGI,1.96 ± 0.13
19,SFSYLIFTTVLLVWW,0.549 ± 0.34
20,SFTWFVTAANYKW,1.8 ± 0.35
21,SFVLGYSFLRKSCWFNVVTL,inactive
22,SFVWLR,2.67 ± 0.37
23,SFWWSDATMFEFVKGSRSGK,inactive
24,SFYQAYYVACCKYNVEY,5.96 ± 0.063
25,SGCLLSDGEF,0.046 ± 0.32

row,Substance,amyloid nucleation score
1,SGCVQDCSLKRIFLMPDKAL,-1.03 ± 0.55
2,SGEVLRPFAVLC,-0.061 ± 0.3
3,SGFIEVYVTIRFEFLYFHTP,0.131 ± 0.18
4,SGGCMDSKLSAVG,0.894 ± 0.51
5,SGHFILHGFYFCYKKCALIY,1.06 ± 0.81
6,SGILNAKLNSIGIEKSYAGF,-2.07 ± 2.4
7,SGKCIFSFE,-0.065 ± 0.34
8,SGKGFFDKSKFLVVMRGRTR,0.06 ± 0.39
9,SGKGMPNMNIPFHMWYQICY,0.001 ± 0.33
10,SGKSNSKPALEYYVSFFIDL,-0.52 ± 0.55
11,SGNGRRWSVLTDLAMLLLWL,-0.316 ± 0.41
12,SGRGWEAYIYCWVRLVRLVW,-0.463 ± 0.35
13,SGSVTVCGIATTPCNMGDRK,0.405 ± 0.79
14,SGSWNMCNHVRVNCYAIDKV,0.167 ± 0.3
15,SGWRSHKLLVSSSCMNARSY,-0.837 ± 0.48
16,SGYLVSSELREFQ,4.28 ± 0.11
17,SGYTGDDFQLKVEG,-0.307 ± 0.39
18,SGYVNFHL,inactive
19,SHASSSSSGCAYQSLVIWIN,4.45 ± 0.081
20,SHATFRVWHTVVVAV,-0.031 ± 0.34
21,SHENSRSNNISSHQP,-0.513 ± 0.34
22,SHNEG,1.34 ± 0.41
23,SHTWKGTSCAFAMHAQRGSQ,inactive
24,SHVEVDEEQVFSMSMVPTGE,-0.106 ± 0.46
25,SHVFAIRT,0.574 ± 0.77

row,Substance,amyloid nucleation score
1,SIFLSNILNDTWFLSALSCM,-1.41 ± 0.53
2,SIGCIYRSSKSGDVSISY,-0.057 ± 0.37
3,SIGYMNLDRVI,-0.944 ± 0.39
4,SIHVVVTQLALISLLNVKSV,inactive
5,SILCIF,0.338 ± 1.2
6,SILFATAFMPVGLRLNDVLS,-0.003 ± 0.46
7,SILKIALTH,-1.71 ± 1.4
8,SIRTVSLLR,-0.859 ± 0.42
9,SITVKKES,0.254 ± 0.62
10,SIWSGMLTGCFRLRSITWHN,0.908 ± 0.24
11,SIYET,0.524 ± 0.49
12,SIYSRGSVLANPCSFYAEVR,inactive
13,SKARKIWYAWLVTPPMRQTE,0.667 ± 0.3
14,SKCVSIMAS,inactive
15,SKESKSSEARLLIR,-1.39 ± 1.3
16,SKIESHFWLVFNIRGSYNKA,7.298 ± 0.046
17,SKILGISKVNCGALL,-1.82 ± 1.8
18,SKLIHYTSFLDYASSGEWKW,2.81 ± 0.17
19,SKMILEV,inactive
20,SKSLFIIGTVPDRS,-0.467 ± 0.52
21,SKVIESDSVCYILHRFKNQC,1.09 ± 0.17
22,SKVSVCNPSSLGSRVGGLAN,inactive
